According to US11789012B2, “Cell death biomarker” (UCL Business PLC, priority 2016, dated 2023):

Key:
[1] = test system: H2731; assay: rTRAIL response, viability assay, H2731; format: cell-based, Human; conditions: BAP1 Essential Splice, heterozygous
Method: (§1) Manual “single dose” combination screening was undertaken using 96 well formats. Cells were plated on day 1 in previously optimized seeding densities in 180 μl if media. On day 2 20 μl of a 10× concentration of […] was added. Cells were then allowed to grow for 72 hrs or 6 days and fixed at the end of the assay. Drug wells were compared to DMSO treated control wells.
(§2) Single agent high throughput 5 point viability screening was undertaken in 384 well formats using robotic liquid handling with fixing with 4% paraformaldehyde and staining for viability with Syto60 nucleic acid dye (Invitrogen) (see below). Single agent dose response curves were derived for each library of 85-95 drugs according to the experiment used, and log IC50 or area under the curve (AUC) metrics were derived for each library compound in each cell line according to a previously derived formula [18].
(§3) Adherent cell lines were seeded 24 hours before drugging. Cells were trypsinised and counted before seeding at the optimal density for the size of well (96 or 384) and duration of assay. 72 hr after drug treatment cells were fixed with 4% paraformaldehyde for 30 minutes. […] Quantification of fluorescent signal was achieved using excitation/emission wavelength of 630/695 […].

[2] = test system: NCI-H2452; assay: rTRAIL response, viability assay, NCI-H2452; format: cell-based, Human; conditions: BAP1 Substitution - Missense, homozygous
Method: as §1, §2, §3

[3] = test system: NCI-H28; assay: rTRAIL response, viability assay, NCI-H28; format: cell-based, Human; conditions: BAP1 Essential Splice, heterozygous
Method: as §1, §2, §3

[4] = test system: NCI-H226; assay: rTRAIL response, viability assay, NCI-H226; format: cell-based, Human; conditions: BAP1 HomDel, homozygous
Method: as §1, §2, §3

[5] = test system: H2369; assay: rTRAIL response, viability assay, H2369; format: cell-based, Human; conditions: BAP1 Wild-type
Method: as §1, §2, §3

[6] = test system: H2373; assay: rTRAIL response, viability assay, H2373; format: cell-based, Human; conditions: BAP1 Wild-type
Method: as §1, §2, §3

[7] = test system: H2803; assay: rTRAIL response, viability assay, H2803; format: cell-based, Human; conditions: BAP1 Wild-type
Method: as §1, §2, §3

[8] = test system: H513; assay: rTRAIL response, viability assay, H513; format: cell-based, Human
Method: as §1, §2, §3

[9] = test system: MPP-89; assay: rTRAIL response, viability assay, MPP-89; format: cell-based, Human; conditions: BAP1 Wild-type
Method: as §1, §2, §3

[10] = test system: MSTO-211H; assay: rTRAIL response, viability assay, MSTO-211H; format: cell-based, Human; conditions: BAP1 Wild-type
Method: as §1, §2, §3

[11] = test system: control normal mesothelial cell line MET-5A; assay: 6-day viability assay, normal mesothelial control line; format: cell-based; conditions: rTRAIL 40 ng/ml
Method: FIG. 2A is a volcano plot showing drug-genome interactions in MPM. […] The Y-axis denotes adjusted p-Value, X-axis denotes effect size. Size of circle indicates number of mutant lines in cohort tested. […] Met 5a is a mesothelial normal control line. FIG. 2C is a scatter plot showing AUC following 6 day viability assay in response to 40 ng/ml rTRAIL (normalised to DMSO treated control) in cell lines discretized by BAP1 mutation status. […] Two-tailed t-test, p=0.015.
as §1
Adherent cell lines were seeded 24 hours before drugging. Cells were trypsinised and counted before seeding at the optimal density for the size of well (96 or 384) and duration of assay. 72 hr after drug treatment cells were fixed with 4% paraformaldehyde for 30 minutes. Following two washes of dH2O 100 μl Syto60 nucleic acid stain (Invitrogen) was added at a final concentration of 1 μM and plates […] for 1 hr at room temperature. Quantification of fluorescent signal was achieved using excitation/emission wavelength of 630/695 […].

[12] = test system: H2818; assay: Cell death response to rTRAIL after BAP1 shRNA knockdown in H2818; format: cell-based, Human; conditions: H2818 BAP1 wild-type line
Method: (§4) Adherent mesothelioma cell lines were plated in a 96 well plate at approximately 10000 cells per well. Cells were plated and given 1 day to adhere at which time drug was added. After 48 hrs media, including floating cells, was collected from each well. The remaining adherent cells were washed with PBS and mobilised with 0.05% trypsin in EDTA. All cells were collected into tubes containing the previously removed media and pelleted by centrifugation (300 g, 5 minutes). Cells were then re-suspended in 1× Annexin V binding buffer with 10 μl/1 ml concentration of Annexin V-647 antibody (Invitrogen) and incubated for 15 minutes at room temperature. DAPI ([…]) was then added to each sample before flow cytometry analysis as below. Annexin V−/DAPI− cells were judged to be viable, AnnexinV+/DAPI− cells were considered to be undergoing apoptosis (early apoptotic phase), and Annexin V+/DAPI+ cells were considered late apoptotic or necrotic, and recorded as dead.
Lentivirus encoding shRNA targeting BAP1 was generated as per the lentivirus production protocol above. MPM cells (H2818) were transduced and treated with puromycin […] until a pure population was achieved. Immunoblotting was performed to assess efficacy of the shRNA knockdown.

[13] = test system: NCI-H226; assay: Annexin V/DAPI cell death assay, H226 parental and BAP1-transduced lines; format: cell-based, Human
Method: FIG. 5A is an immunoblot for BAP1 protein in BAP1 null mesothelioma lines following transfection with empty vector and BAP1 expression vector. […] FIG. 5C is a graph showing the effect of rTRAIL on cell viability of an untransduced H226 cell line, a BAP1 (transduced) cell line, and a H226 cell line with the NLS deleted.
Untransduced BAP1-negative H226 cells, BAP1-expressing and catalytically dead BAP1-expressing H226 cells were treated with 100 ng/ml of FASL, TRAIL and TNF-alpha for 24 hours and cell death was quantified by Annexin V/DAPI assay. *p<0.05 indicating significant difference between untransduced H226 cells H226 BAP1 expressing cells. NS no significant difference between untransduced H226 cells and BAP1 C91A transduced cells. #p<0.05 indicating significant difference between untransduced H226 cells and BAP1 C91A transduced cells.
as §4

[14] = test system: RCC10RGB; assay: rTRAIL viability, renal cell cancer cell line RCC10RGB; format: cell-based; conditions: BAP1 missense mutation
From the text: (§5) FIG. 8A is a graph showing the effect of rTRAIL on the viability of various cancer cell lines. Bladder (RT4) and Breast (HCC1187) cancer cell lines with nonsense mutations in BAP1 show sensitivity to rTRAIL while renal cell cancer cell lines (769P & RCC10RGB) with missense mutation and wild-type renal (BB65RCC) and bladder cancer (SW1710) cell lines are resistant to TRAIL.

[15] = test system: BB65RCC; assay: rTRAIL viability, renal cell line BB65RCC; format: cell-based; conditions: BAP1 wild-type
From the text: as §5

[16] = test system: SW1710; assay: rTRAIL viability, bladder cancer cell line SW1710; format: cell-based; conditions: BAP1 wild-type
From the text: as §5

B1: rTRAIL: recombinant protein that activates the TRAIL pathway by binding to TRAIL-R1 (DR 4) and TRAIL-R2 (DR 5) (protein, UniProt P50591 1-281, looked up)
Tumor necrosis factor ligand …: MAMMEVQGGPSLGQTCVLIVIFTVLLQSLCVAVTYVYFTNELKQMQDKYSKSGIACFLKEDDSYWDPNDEESMNSPCWQVKWQLRQLVRKMILRTSEETISTVQEKQQNISPLVRERGPQRVAAHITGTRGRSNTLSSPNSKNEKALGRKINSWESSRSGHSFLSNLHLRNGELVIHEKGFYYIYSQTYFRFQEEIKENTKNDKQMVQYIYKYTSYPDPILLMKSARNSCWSKDAEYGLYSIYQGGIFELKENDRIFVSVTNEHLIDMDHEASFFGAFLVG
rTRAIL response [1]: Sensitive | rTRAIL response [2]: Resistant | rTRAIL response [3]: Sensitive | rTRAIL response [4]: Sensitive** | rTRAIL response [5]: Resistant | rTRAIL response [6]: Resistant | rTRAIL response [7]: Resistant | rTRAIL response ([8]; BAP1 Wild-type): Resistant | TRAIL sensitivity ([8]; BAP1 wild-type and ASXL3 mutant (truncating mutation)): sensitive | rTRAIL response [9]: Resistant | rTRAIL response [10]: Sensitive** | effect on cell viability [11]: no significant effect on cell viability | TRAIL sensitivity after ablation of BAP1 with lentiviral shRNA vs parental line [12]: shift towards increased sensitivity | sensitivity of H226 cells to cell death-inducing ligand, dependence on BAP1 catalytic domain ([13]; 100 ng/ml, 24 hours, untransduced, BAP1-expressing and catalytically dead BAP1-expressing H226): regulates the sensitivity | cell death relative to BAP1 null line ([13]; BAP1 expressing H226 cell line, dose range of TRAIL): significantly reduced | cell death ([13]; BAP1 null NCI-H226, dose range of TRAIL): increased cell death | response to TRAIL (viability) [14]: resistant | response to TRAIL (viability) [15]: resistant | response to TRAIL (viability) [16]: resistant
